This passage reports EC50 hC3 cleavage and EC50 of hC3 cleavage results from patent publication US20240018502A1.

Where a chain is given by its changes, count along the chain named. Names and notes keep the numbering of the source.

B1: MTSP-1 protease domain Q38Y/I41T/D96M/ins97aS/C122S/G151N (enzyme)
chain: VVGGTDADEGEWPWQVSLHALGYGHTCGASLISPNWLVSAAHCYIDDRGFRYSDPTQWTAFLGLHDQSQRSAPGVQERRLKRIISHPFFNMFSTFDYDIALLELEKPAEYSSMVRPISLPDASHVFPAGKAIWVTGWGHTQYGGTNALILQKGEIRVINQTTCENLLPQQITPRMMCVGFLSGGVDSCQGDSGGPLSSVEADGRIFQAGVVSWGDGCAQRNKPGVYTRLPLFRDWIKENTGV
B2: MTSP-1 protease domain I41S/Y59F/ins97aV/C122S/Q192A (enzyme)
chain: B1 chain with Y23Q, T26S, Y44F, M91D, S93V, N146G, Q189A
B3: MTSP-1 protease domain I41S/Y59F/ins97aV/C122S/Q192G (enzyme)
chain: B1 chain with Y23Q, T26S, Y44F, M91D, S93V, N146G, Q189G
B4: MTSP-1 protease domain I41S/S90P/ins97aV/C122S/Y146E/Q192N/D217V (enzyme)
chain: B1 chain with Y23Q, T26S, S85P, M91D, S93V, Y142E, N146G, Q189N, D215V
B5: MTSP-1 protease domain I41S/ins97aV/C122S/Q192V/D217V (enzyme)
chain: B1 chain with Y23Q, T26S, M91D, S93V, N146G, Q189V, D215V
B6: MTSP-1 protease domain I41S/F93L/ins97aV/C122S/Q192V/D217V (enzyme)
chain: B1 chain with Y23Q, T26S, F88L, M91D, S93V, N146G, Q189V, D215V
B7: MTSP-1 protease domain I41S/F97G/ins97aA/T98P/C122S/Q192A (enzyme)
chain: B1 chain with Y23Q, T26S, M91D, F92G, S93A, T94P, N146G, Q189A
B8: MTSP-1 protease domain I41S/F97V/ins97aV/T98P/C122S (enzyme)
chain: B1 chain with Y23Q, T26S, M91D, F92V, S93V, T94P, N146G
B9: MTSP-1 protease domain Q38H/I41S/D96K/ins97aS/C122S/G151P/Q192S (enzyme)
chain: B1 chain with Y23H, T26S, M91K, N146P, Q189S
B10: MTSP-1 protease domain I41S/ins97aV/C122S/Q192G/Q209L (enzyme)
chain: B1 chain with Y23Q, T26S, M91D, S93V, N146G, Q189G, Q207L
B11: MTSP-1 protease domain I41S/Y59F/ins97aV/C122S/G187D/Q192V/D217V (enzyme)
chain: B1 chain with Y23Q, T26S, Y44F, M91D, S93V, N146G, G184D, Q189V, D215V
B12: MTSP-1 protease domain Q38H/I41S/D96G/ins97aG/C122S/G151N/Q192A (enzyme)
chain: B1 chain with Y23H, T26S, M91G, S93G, Q189A
B13: MTSP-1 protease domain I41S/D96E/ins97aG/C122S/G151Q/Q192A (enzyme)
chain: B1 chain with Y23Q, T26S, M91E, S93G, N146Q, Q189A
B14: MTSP-1 protease domain I41A/F97G/ins97aV/T98E/C122S (enzyme)
chain: B1 chain with Y23Q, T26A, M91D, F92G, S93V, T94E, N146G
B15: MTSP-1 protease domain I41S/S90T/ins97aV/C122S/Q192V/D217V (enzyme)
chain: B1 chain with Y23Q, T26S, S85T, M91D, S93V, N146G, Q189V, D215V
B16: MTSP-1 protease domain I41A/F97S/ins97aA/C122S (enzyme)
chain: B1 chain with Y23Q, T26A, M91D, F92S, S93A, N146G
B17: MTSP-1 protease domain Q38H/I41S/ins97aV/A112V/C122S/Q192A/Q209L (enzyme)
chain: B1 chain with Y23H, T26S, M91D, S93V, A108V, N146G, Q189A, Q207L
B18: MTSP-1 protease domain Q38H/I41S/D96K/ins97aD/C122S/G151N/Q192S (enzyme)
chain: B1 chain with Y23H, T26S, M91K, S93D, Q189S
B19: MTSP-1 protease domain I41S/S90T/ins97aV/C122S/Q192N/D217V (enzyme)
chain: B1 chain with Y23Q, T26S, S85T, M91D, S93V, N146G, Q189N, D215V
B20: MTSP-1 protease domain I41S/Y59F/F97S/ins97aV/S116Y/C122S/Q192G/D217V (enzyme)
chain: B1 chain with Y23Q, T26S, Y44F, M91D, F92S, S93V, S112Y, N146G, Q189G, D215V
B21: MTSP-1 protease domain I41A/F97G/ins97aM/T98L/C122S (enzyme)
chain: B1 chain with Y23Q, T26A, M91D, F92G, S93M, T94L, N146G
B22: MTSP-1 protease domain I41T/Y60gL/N95D/D96F/F97S/F99L/C122S/Q175S/Q192A (enzyme)
chain: VVGGTDADEGEWPWQVSLHALGQGHTCGASLISPNWLVSAAHCYIDDRGFRLSDPTQWTAFLGLHDQSQRSAPGVQERRLKRIISHPFFDFSTLDYDIALLELEKPAEYSSMVRPISLPDASHVFPAGKAIWVTGWGHTQYGGTGALILQKGEIRVINQTTCENLLPQSITPRMMCVGFLSGGVDSCAGDSGGPLSSVEADGRIFQAGVVSWGDGCAQRNKPGVYTRLPLFRDWIKENTGV
B23: MTSP-1 protease domain A35V/I41S/Y59F/C122S/Q192D/D217V (enzyme)
chain: VVGGTDADEGEWPWQVSLHVLGQGHSCGASLISPNWLVSAAHCFIDDRGFRYSDPTQWTAFLGLHDQSQRSAPGVQERRLKRIISHPFFNDFTFDYDIALLELEKPAEYSSMVRPISLPDASHVFPAGKAIWVTGWGHTQYGGTGALILQKGEIRVINQTTCENLLPQQITPRMMCVGFLSGGVDSCDGDSGGPLSSVEADGRIFQAGVVSWGVGCAQRNKPGVYTRLPLFRDWIKENTGV
B24: MTSP-1 protease domain I41G/F97L/F99L/C122S/Q192S (enzyme)
chain: B22 chain with T26G, L52Y, D90N, F91D, S92L, S169Q, A188S
B25: MTSP-1 protease domain I41L/N95D/D96T/F97W/F99L/C122S/Q192A (enzyme)
chain: B22 chain with T26L, L52Y, F91T, S92W, S169Q
B26: MTSP-1 protease domain I41A/F97W/T98S/F99L/C122S/Q192A (enzyme)
chain: B22 chain with T26A, L52Y, D90N, F91D, S92W, T93S, S169Q
B27: MTSP-1 protease domain I41G/F97E/F99L/C122S/Q192A (enzyme)
chain: B22 chain with T26G, L52Y, D90N, F91D, S92E, S169Q
B28: MTSP-1 Q38H/I41S/D60bT/F60eS/Y60gW/D96K/F97G/T98P/F99L/C122S/G151H/Q175L/Q192D (enzyme)
chain: VVGGTDADEGEWPWQVSLHALGHGHSCGASLISPNWLVSAAHCYIDTRGSRWSDPTQWTAFLGLHDQSQRSAPGVQERRLKRIISHPFFNKGPLDYDIALLELEKPAEYSSMVRPISLPDASHVFPAGKAIWVTGWGHTQYGGTHALILQKGEIRVINQTTCENLLPQLITPRMMCVGFLSGGVDSCDGDSGGPLSSVEADGRIFQAGVVSWGDGCAQRNKPGVYTRLPLFRDWIKENTGV
B29: MTSP-1 protease domain I41S/T98S/F99L/C122S/Q192A (enzyme)
chain: B23 chain with V20A, F44Y, T93S, F94L, D188A, V214D
B30: MTSP-1 protease domain I41S/F97Q/F99L/C122S/Q192S (enzyme)
chain: B23 chain with V20A, F44Y, F92Q, F94L, D188S, V214D
B31: MTSP-1 Q38H/I41S/D60bT/F60eS/Y60gW/D96K/F97G/ins97aV/F99L/C122S/G151H/Q175L/Q192D (enzyme)
chain: VVGGTDADEGEWPWQVSLHALGHGHSCGASLISPNWLVSAAHCYIDTRGSRWSDPTQWTAFLGLHDQSQRSAPGVQERRLKRIISHPFFNKGVTLDYDIALLELEKPAEYSSMVRPISLPDASHVFPAGKAIWVTGWGHTQYGGTHALILQKGEIRVINQTTCENLLPQLITPRMMCVGFLSGGVDSCDGDSGGPLSSVEADGRIFQAGVVSWGDGCAQRNKPGVYTRLPLFRDWIKENTGV
B32: MTSP-1 Q38H/I41S/D60bT/F60eS/Y60gW/D96K/F97G/ins97aV/T98P/C122S/G151H/Q175L/Q192D (enzyme)
chain: B31 chain with T94P, L95F

The experiment deals with plasma purified human complement protein C3 (human) (UniProt P01024). Description: cell-based or functional assay.
Chain of plasma purified human complement protein C3 (human) (P01024 23-667, chain 1 of 2): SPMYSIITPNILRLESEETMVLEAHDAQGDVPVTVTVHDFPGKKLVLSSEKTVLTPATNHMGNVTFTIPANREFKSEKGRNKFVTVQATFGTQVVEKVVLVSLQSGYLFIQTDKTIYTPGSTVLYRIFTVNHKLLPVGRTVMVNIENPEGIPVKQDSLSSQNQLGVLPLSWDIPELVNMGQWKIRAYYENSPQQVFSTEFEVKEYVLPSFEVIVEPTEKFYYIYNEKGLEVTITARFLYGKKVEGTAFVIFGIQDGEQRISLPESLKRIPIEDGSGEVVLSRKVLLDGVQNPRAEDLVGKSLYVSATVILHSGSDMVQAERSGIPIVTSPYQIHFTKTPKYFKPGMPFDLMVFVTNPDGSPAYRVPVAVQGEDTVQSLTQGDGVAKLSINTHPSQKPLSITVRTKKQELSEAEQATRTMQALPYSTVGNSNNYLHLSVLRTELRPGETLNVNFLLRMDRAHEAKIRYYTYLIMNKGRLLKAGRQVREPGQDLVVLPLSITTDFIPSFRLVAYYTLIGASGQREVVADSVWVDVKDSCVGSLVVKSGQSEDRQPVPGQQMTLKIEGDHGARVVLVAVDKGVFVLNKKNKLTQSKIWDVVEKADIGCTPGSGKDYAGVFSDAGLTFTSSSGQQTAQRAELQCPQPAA
Chain of plasma purified human complement protein C3 (human) (P01024 672-1663, chain 2 of 2): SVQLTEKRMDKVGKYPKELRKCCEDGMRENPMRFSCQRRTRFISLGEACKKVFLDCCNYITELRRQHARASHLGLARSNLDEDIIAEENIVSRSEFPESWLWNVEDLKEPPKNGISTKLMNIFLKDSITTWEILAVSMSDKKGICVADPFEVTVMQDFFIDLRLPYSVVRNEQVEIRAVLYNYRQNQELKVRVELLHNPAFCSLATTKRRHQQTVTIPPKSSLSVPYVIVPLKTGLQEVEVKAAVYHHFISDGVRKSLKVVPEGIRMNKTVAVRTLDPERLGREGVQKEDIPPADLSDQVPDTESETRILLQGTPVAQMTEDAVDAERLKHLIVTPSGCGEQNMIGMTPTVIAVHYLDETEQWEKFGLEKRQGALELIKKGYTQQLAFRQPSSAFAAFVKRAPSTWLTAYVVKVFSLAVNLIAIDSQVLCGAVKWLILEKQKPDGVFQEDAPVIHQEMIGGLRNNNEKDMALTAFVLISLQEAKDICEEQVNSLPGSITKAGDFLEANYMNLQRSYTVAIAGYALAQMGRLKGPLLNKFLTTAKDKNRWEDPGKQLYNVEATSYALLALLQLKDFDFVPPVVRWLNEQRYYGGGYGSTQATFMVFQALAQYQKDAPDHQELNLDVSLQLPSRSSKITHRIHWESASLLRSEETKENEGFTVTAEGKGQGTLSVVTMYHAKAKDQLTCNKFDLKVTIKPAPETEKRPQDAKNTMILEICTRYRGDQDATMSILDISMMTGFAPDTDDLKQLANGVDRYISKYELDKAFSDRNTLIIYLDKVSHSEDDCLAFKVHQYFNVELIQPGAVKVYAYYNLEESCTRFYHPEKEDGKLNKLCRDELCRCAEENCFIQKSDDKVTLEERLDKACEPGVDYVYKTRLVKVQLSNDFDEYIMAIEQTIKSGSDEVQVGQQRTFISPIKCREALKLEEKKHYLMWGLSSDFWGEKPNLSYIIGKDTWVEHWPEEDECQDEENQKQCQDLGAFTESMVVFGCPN
Molecule B1 returned an EC50 hC3 cleavage of 12.5 nM. The same measure, in the same setting: next, B2: 16.6 nM; B3: 25.6 nM. On the same count and under the same terms, as for B4, the figure is 6.47 nM; as for B5, 11 nM; as for B6, 9.82 nM. Same read-out and setting: as for B7, the figure is 57.2 nM. Take B8: the EC50 hC3 cleavage came out at 30.9 nM.

For the molecule B9, the EC50 hC3 cleavage is 25.6 nM. On the same count and under the same terms, next, B10: 33.4 nM; B11: 8.35 nM. Same read-out and setting: next, B12: 34.6 nM; B13: 44.4 nM. For B14, the EC50 hC3 cleavage came out at 18.1 nM.

As to B15, the EC50 hC3 cleavage was determined as 10.5 nM. B16: the EC50 hC3 cleavage came to 19.8 nM.

Take B17: the EC50 hC3 cleavage came out at 10.9 nM.

B18 showed an EC50 hC3 cleavage of 26.8 nM. Same read-out and setting: next, B19: 13.4 nM; B20: 8.22 nM. The same measure, in the same setting: next, B21: 40.1 nM. Still for that read-out and setting: next, B22: 247 nM; B23: 39.8 nM. On to B24, for which the EC50 hC3 cleavage worked out at 41.4 nM. Molecule B25 yielded an EC50 hC3 cleavage of 62.6 nM. Same read-out and setting: next, B26: 27 nM. Same read-out and setting: next, B27: 30.1 nM. As for B28, the EC50 of hC3 cleavage stood at 7.88 nM. The molecule B29 showed an EC50 hC3 cleavage of 17.4 nM. As to B30, the EC50 hC3 cleavage came out at 53.5 nM.

In turn, B31 gave an EC50 of hC3 cleavage of 9.83 nM. Still for that read-out and setting: next, B32: 18.3 nM.
